In assay [1] the target is HA of influenza virus A/Ck/HK/SSP176/09 (H9) (influenza A virus H9). The assay is described as follows: cell-based or functional assay.
Assay [2] addresses HA of influenza virus A/Hiroshima/52/2005 (H3) (influenza A virus H3). The assay is described as follows: cell-based or functional assay.
The target in assay [3] is HA of influenza virus A/EW/MPD411/07 (H6) (influenza A virus H6). The assay is described as follows: cell-based or functional assay.
Assay [4] deals with HA of influenza virus A/Johannesburg/33/94 (H3) (influenza A virus H3). The assay is described as follows: cell-based or functional assay.
The target of assay [5] is HA of influenza virus A/Hong Kong/1073/99 (H9) (influenza A virus H9). In words: cell-based or functional assay.
The target of assay [6] is HA of influenza virus A/WF/MPA 892/06 (H4) (influenza A virus H4). The assay is described as follows: cell-based or functional assay.
The target of assay [7] is HA of influenza virus A/EW/MPF461/07 (H5) (influenza A virus H5). The assay is described as follows: cell-based or functional assay.
For assay [8], the target named is HA of influenza virus A/Panama/2007/1999 (H3) (influenza A virus H3). The assay is described as follows: cell-based or functional assay.
The target in assay [9] is HA of influenza virus A/EW/MPH571/08 (H8) (influenza A virus H8). In words: cell-based or functional assay.
For assay [10], the target named is HA of influenza virus A/Chick/Germany/N/49 (H10) (influenza A virus H10). The assay is described as follows: cell-based or functional assay.
Assay [11] concerns the target HA of influenza virus A/Env/MPU3156/05 (H2) (influenza A virus H2). In words: cell-based or functional assay.
In assay [12] the target is HA of influenza virus A/Brisbane/10/2007 (H3) (influenza A virus H3). The assay is described as follows: cell-based or functional assay.
The target of another assay is H3-mini2-cl9 + 13 (influenza A virus H3N2, UniProt Q38SQ8 18-566). In words: FACS.
The target in assay [13] is H3-mini2-cl9 + 10 + 11 + 13-GCN4 (influenza A virus H3N2). In words: FACS.
The target in assay [14] is H3-mini2-cl9 + 10 + 11 + 13-tri (influenza A virus H3N2). The assay is described as follows: FACS.
Assay [15] addresses H3-mini2-cl9 + 10 + 11-GCN4 (influenza A virus H3N2). The assay is described as follows: FACS.
Assay [16] has as its target H3-mini2-cl9 + 10 + 11 + 13 (influenza A virus H3N2, UniProt Q38SQ8 18-566). The assay is described as follows: FACS.
The target of assay [17] is H3-mini2-cl9 + 10 + 11-tri (influenza A virus H3N2). The assay is described as follows: FACS.

B1: CR9114 (antibody, V domains shown)
VH: QVQLVQSGAEVKKPGSSVKVSCKSSGGTSNNYAISWVRQAPGQGLDWMGGISPIFGSTAYAQKFQGRVTISADIFSNTAYMELNSLTSEDTAVYFCARHGNYYYYSGMDVWGQGTTVTVSS
VL: SYVLTQPPAVSGTPGQRVTISCSGSDSNIGRRSVNWYQQFPGTAPKLLIYSNDQRPSVVPDRFSGSKSGTSASLAISGLQSEDEAEYYCAAWDDSLKGAVFGGGTQLTVL
Regarding B1, the “geomean IC50, virus neutralization assay (VNA)” value in assay [1] is 6.3 µg/mL; in assay [2], 12.5 µg/mL; in assay [3] it was 10.5 µg/mL; in [4], 21.9 µg/mL; in [5], 4.4 µg/mL; in assay [6] it was 0.8 µg/mL. In addition, the “geomean IC50, virus neutralization assay (VNA)” value in assay [7] was 10.5 µg/mL; in [8], 39.9 µg/mL; in assay [9], 8.8 µg/mL; in assay [10], 15.7 µg/mL; in assay [11], 8.8 µg/mL; in [12], 5.6 µg/mL. In addition, the binding result (in the assay with H3-mini2-cl9 + 13; in assay [13]; in [14]; in [15]; in assay [16]; in [17]) was “no binding (tested: 5 microgram/ml)” throughout.
